Assays:
Test in all cases: fluorescence polarisation; FITC-labelled peptide fixed at 4 nM, arrestin titrated (0-50 μM; 0-3.20 μM for C-tail_6P); 20 mM HEPES pH 7.4, 100 mM NaCl, 0.01% DDM; room temperature, 30 min; One Site–Total fit; triplicate
[1] = target: NTSR1 C-tail peptide phosphorylated at Thr407/Ser409/Ser410 (human)
[2] = target: NTSR1 C-tail peptide with hexa-phosphorylation at Ser401/Ser403/Ser404 and Thr407/Ser409/Ser410 (human)
[3] = target: NTSR1 C-tail peptide phosphorylated at Ser401/Ser403/Ser404 (human)

- Kd [1]: 3.77 µM
- Kd [2]: 0.035 µM
- Kd [3]: 5.11 µM
Substance: human βArr1 truncated at residue 382 (constitutively active variant) (from UniProt P49407 1-382) (domain or fragment)
